According to publication PMC8537452:

Assays:
[1] = biological target: long carboxyl terminus (CTL) of rat Cav1.3L (rat)
[2] = biological target: long carboxyl terminus (CTL) of rat Cav1.3L (rat); remark: listed apart in the source
[3] = biological target: long carboxyl terminus (CTL) of rat Cav1.3L (rat); remark: listed apart in the source

long carboxyl terminus (CTL) of rat Cav1.3L (rat), sequence (P27732 1460-2155): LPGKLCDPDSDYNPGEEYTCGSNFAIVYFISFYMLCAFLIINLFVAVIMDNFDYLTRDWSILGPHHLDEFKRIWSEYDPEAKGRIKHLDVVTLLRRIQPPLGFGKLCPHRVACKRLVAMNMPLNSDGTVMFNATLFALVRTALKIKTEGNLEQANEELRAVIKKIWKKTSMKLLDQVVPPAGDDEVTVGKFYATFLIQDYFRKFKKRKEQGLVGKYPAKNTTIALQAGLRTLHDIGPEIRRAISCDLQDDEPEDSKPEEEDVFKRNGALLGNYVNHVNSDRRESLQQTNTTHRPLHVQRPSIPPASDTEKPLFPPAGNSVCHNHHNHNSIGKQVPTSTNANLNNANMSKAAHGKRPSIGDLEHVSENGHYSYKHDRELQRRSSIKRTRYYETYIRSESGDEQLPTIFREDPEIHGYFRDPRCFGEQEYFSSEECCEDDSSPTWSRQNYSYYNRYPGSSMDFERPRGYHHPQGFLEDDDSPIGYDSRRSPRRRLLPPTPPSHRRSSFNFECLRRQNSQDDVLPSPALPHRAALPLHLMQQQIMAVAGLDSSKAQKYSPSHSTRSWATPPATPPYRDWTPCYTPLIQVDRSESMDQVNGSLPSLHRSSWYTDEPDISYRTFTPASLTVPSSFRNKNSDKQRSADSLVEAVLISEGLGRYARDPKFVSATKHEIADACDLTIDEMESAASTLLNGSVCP

Row | average peak current amplitude at −10 mV of Cav1.3L/β3 with vs. without Snapin2 in Xenopus oocytes [1] | maximal chord conductance of Cav1.3L channels without vs. with Snapin2 in Xenopus oocytes [1] | maximal chord conductance of Cav1.3L channels without vs. with Snapin2 in HEK-293 cells [2] | maximal normalized chord conductance of Cav1.3L without or with Snapin1 in HEK-293 cells [3] | Molecule
1 | -2410 nA | 28.1 μS | 1.86 nS/pF |  | rat Snapin2 (natural protein)
2 |  |  |  | 2.09 nS/pF | rat Snapin1 (natural protein) MAAAGSAAVSGAGTPVAGPTGRDLFAEGLLEFLRPAVQQLDSHVHAVRESQVELREQIDNLATELCRINEDQKVALDLDPYVKKLLNARRRVVLVNNILQNAQERLRRLNHSVAKETARRRAMLDSGVYPPGSPSK
